Target: the molecule itself
Assay: negative-stain transmission electron microscopy; SEC fractions a, b and c of OsTDX on glow-discharged carbon-coated copper grids, 1% uranyl acetate, FEI Tecnai 20 at 200 kV

B1: Oryza sativa Tetratricopeptide Domain-containing thioredoxin (OsTDX) protein (natural protein, UniProt Q6ES52 1-317, looked up)
chain: MATAGASSFEDEIMESDIELEGEAVEPDNDPPQKMGDPSVEVSDEKRDQAQLCKNKGVDAFSEGKLDEAIEHLTEAIVLNPTSAIAYATRAVIFVKSKKPNAAIRDADAALKINPDSAKGYKSRGMAKAMLGKWEEAAQDLRMAAKLDYDEEIGAELKKVEPNVLKIEEHRKKYERLRKERDIKKAEMEKQRKHAEEVSAASAALKDGDVIAIHSSSELDTKLKAASSLSRLVVLYFTAAWCGPCRFIGPVCKSLAEKHRNVVFLKVDIDELNSVAYRWNVSSVPSFFFVRNGKEIDKVVGADKNGLERKVAQHGSS
notes: OsTDX, Oryza sativa TPR repeat-containing thioredoxin; full-length cDNA amplified from a rice leaf cDNA library and cloned into pGEX-2T; predicted MW ~35 kDa; also called rice Trx-like protein; recombinant OsTDX; source: E. coli BL21(DE3), purified (glutathione-agarose, GST cleaved by thrombin, FPLC SEC 650 column)
- stoichiometry N: 2

Source: article PMC6471494, “Functional Mechanisms Underlying the Antimicrobial Activity of the Oryza sativa Trx-like Protein” (International Journal of Molecular Sciences, 2019)
